Data as given in patent publication US20250346679A1 (INVOX PHARMA, published 2025).

Assays:
[1] = biological target: T1, human PD-L1, cell-surface (human, UniProt Q9NZQ7 19-290); assay: cell-based or functional assay
[2] = biological target: T2, human CD137, cell-surface (human, UniProt Q07011 24-255); assay: cell-based or functional assay
[3] = biological target: T2, human CD137, cell-surface; assay: cell-based or functional assay; remark: listed apart in the source
[4] = biological target: T1, human PD-L1, cell-surface; assay: cell-based or functional assay; remark: listed apart in the source
[5] = biological target: T3, cynomolgus PD-L1, cell-surface (cynomolgus); assay: flow cytometry on HEK.cPD-L1
T3 construct: also called HEK.cPD-L1; HEK.cyPD-L1
T3 sequence (chain, as listed by the source limits assumed): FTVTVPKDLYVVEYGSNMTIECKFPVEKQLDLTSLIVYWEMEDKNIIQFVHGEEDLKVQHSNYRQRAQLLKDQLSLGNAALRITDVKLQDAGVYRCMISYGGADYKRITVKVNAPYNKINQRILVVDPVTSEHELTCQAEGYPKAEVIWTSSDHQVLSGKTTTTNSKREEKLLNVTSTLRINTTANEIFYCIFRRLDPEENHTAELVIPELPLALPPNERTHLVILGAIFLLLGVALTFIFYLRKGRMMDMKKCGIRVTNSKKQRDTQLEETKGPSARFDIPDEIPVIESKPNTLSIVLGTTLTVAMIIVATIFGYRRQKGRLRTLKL
Protocol: Non-specific binding was also assessed by testing binding to HEK293 parental cells lacking human PD-L1 (Flp-In T-Rex 293 cell line, Life Technologies, R780-07).
(§1) HEK293, HEK.hPD-L1 and HEK.cPD-L1 suspensions were prepared in FACS buffer (DPBS (Gibco, 14190-094) containing 0.5% BSA (Sigma, A7906)) and seeded at 1×10⁵ cell/well in 100 μl in round bottomed 96-well plates (VWR, 734-1797). […] The washed cells were resuspended in the diluted antibody mixture, incubated at 4° C. for 30 minutes, and then washed once in FACS buffer. […] Dead cells were excluded and the fluorescence in the APC channel (638 nm 660/20) was measured. The geometric mean fluorescence intensity (GMFI) values were plotted vs the log concentration of antibody and the resulting curves were fitted using the log (agonist) vs response equation in GraphPad Prism.

[6] = biological target: T2, human CD137, cell-surface; assay: flow cytometry on DO11.10.hCD137
Protocol: Non-specific binding was also assessed by testing binding to DO11.10 cells lacking CD137 expression.
as §1, with “Briefly, DO11.10, DO11.10.hCD137 or DO11.10.cCD137” for “HEK293, HEK.hPD-L1 and HEK.cPD-L1”, “(DPBS containing” for “(DPBS”

[7] = biological target: Human FcRn (Acro Biosystems, FCM-H5286) (human, UniProt P55899 24-297; P61769 21-119); assay: SPR, mAb^2 immobilised, FcRn in flow, pH 6.0, steady state affinity; pH 6.0
Chain of Human FcRn (Acro Biosystems, FCM-H5286) (P55899 24-297 limits assumed, chain 1 of 2): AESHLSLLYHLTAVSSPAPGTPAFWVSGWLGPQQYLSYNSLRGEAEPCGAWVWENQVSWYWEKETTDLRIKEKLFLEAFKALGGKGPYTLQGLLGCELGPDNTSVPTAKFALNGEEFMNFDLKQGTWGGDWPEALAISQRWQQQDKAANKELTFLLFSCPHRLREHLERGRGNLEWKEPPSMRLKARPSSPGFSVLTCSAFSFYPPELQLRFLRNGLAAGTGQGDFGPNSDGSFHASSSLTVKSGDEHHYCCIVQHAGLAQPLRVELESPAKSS
Chain of Human FcRn (Acro Biosystems, FCM-H5286) (P61769 21-119 limits assumed, chain 2 of 2): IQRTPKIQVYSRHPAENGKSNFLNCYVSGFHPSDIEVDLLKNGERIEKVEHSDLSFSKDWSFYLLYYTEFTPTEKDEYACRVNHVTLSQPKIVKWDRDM
Source text: (§2) The neonatal Fc receptor (FcRn) binding is critical for antibody recycling (Martins et al., 2016). […] G1-AA/HeID1.3 was included as an isotype control IgG control lacking mutations in the CH3 domain.
(§3) Briefly, mAb² were individually coated on flow cell 2, 3 and 4 of Series S Sensor Chip CM5 (GE Healthcare, BR100530) to achieve a response of approximately 1000 RU. Flow cell 1 was activated/deactivated but left blank as a reference. Human FcRn (Acro Biosystems, FCM-H5286) or mouse FcRn (R&D systems, 9114-Fc) was dialysed and diluted in MHBS-EP⁺B pH 6.0 or pH 7.4 buffer (10 mM MES, FortéBio, 18-5026; 1×HBS-EP, GE Healthcare, BR100669; 0.1 mg/ml BSA, Sigma, A7906) and injected on flow cell 1, 2, 3 and 4 at 2000-3000 nM with 2-fold dilutions for 1 min at 80 μl/min and then allowed to dissociate in buffer for 3 min. […] Subtracted data (flow cell 2−flow cell 1, flow cell 3−flow cell 1, or flow cell 4−flow cell 1) was analysed using Biacore T200 Evaluation Software 2.0 to identify binding using the model steady state affinity.

[8] = biological target: T4, mouse FcRn (R&D systems, 9114-Fc) (mouse, UniProt Q61559 22-297; P01887 21-119, limits assumed); assay: as above
T4 sequence (looked up) 1: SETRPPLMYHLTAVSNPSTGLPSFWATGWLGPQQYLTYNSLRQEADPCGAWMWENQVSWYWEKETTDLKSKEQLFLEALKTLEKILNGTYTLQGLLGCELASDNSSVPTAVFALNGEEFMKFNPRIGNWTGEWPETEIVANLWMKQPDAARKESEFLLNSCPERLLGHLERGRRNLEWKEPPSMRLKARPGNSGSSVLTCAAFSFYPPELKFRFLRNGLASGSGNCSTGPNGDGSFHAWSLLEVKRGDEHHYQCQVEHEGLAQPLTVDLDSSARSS
T4 sequence (looked up) 2: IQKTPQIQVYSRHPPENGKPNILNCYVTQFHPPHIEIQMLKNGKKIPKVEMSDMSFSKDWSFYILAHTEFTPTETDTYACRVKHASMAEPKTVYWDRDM
Source text: as §2, §3

hPD-L1-His-Avi = biological target: T5, hPD-L1-His-Avi (human); assay: SPR, mAb^2 captured on immobilised human PD-L1 His, then hCD137-mFc-Avi (100 nM) in flow
T5 construct: also called human PD-L1-His Avi; Human PD-L1 His
T5 sequence (chain, as listed by the source limits assumed): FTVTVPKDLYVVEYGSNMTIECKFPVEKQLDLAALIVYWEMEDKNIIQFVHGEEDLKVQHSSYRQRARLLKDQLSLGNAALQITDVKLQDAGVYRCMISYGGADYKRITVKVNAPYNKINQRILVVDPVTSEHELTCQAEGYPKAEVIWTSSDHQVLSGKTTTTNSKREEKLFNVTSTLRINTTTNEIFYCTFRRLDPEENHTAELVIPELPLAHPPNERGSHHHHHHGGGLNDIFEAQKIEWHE
Protocol: One flow cell was activated and deactivated without any protein immobilised for background subtraction. The antibodies, diluted to 5 μg/ml in HBS-EP buffer, were captured at a flow rate of 30 μl/min to achieve a density of about 200-300 RU. Binding of human CD137-mFc-Avi was tested at 0 and 100 nM for 5 min at 30 μl/min, followed by a dissociation step of 2.5 min. The sensor chip was regenerated after each cycle with 20 mM NaOH for 60 seconds at a flow rate of 30 μl/min.

[9] = biological target: T1, human PD-L1, cell-surface; assay: flow cytometry on activated primary human CD4+ T cells (carry PD-L1 and CD137); activated primary human CD4+ T cells (carry PD-L1 and little CD137)
Protocol: CD137 is rapidly expressed to high levels on activated CD8⁺ T cells and also on activated CD4⁺ T cells with lower levels (Xue-Zhong Yu et al, 2013), therefore Pan T cells were stimulated for 24 hours using Dynabeads™ Human T-Activator CD3/CD28 beads (Thermo, 11132D) according to manufacturer's instructions.
Dead cells were excluded and the fluorescence in the APC channel (638 nm 660/20) was measured to show test antibody binding. The geometric Mean Fluorescence Intensity (GMFI) values were plotted vs the log concentration of antibody and the resulting curves were fitted using the log (agonist) vs response equation in GraphPad Prism.

T1 sequence (Q9NZQ7 19-290): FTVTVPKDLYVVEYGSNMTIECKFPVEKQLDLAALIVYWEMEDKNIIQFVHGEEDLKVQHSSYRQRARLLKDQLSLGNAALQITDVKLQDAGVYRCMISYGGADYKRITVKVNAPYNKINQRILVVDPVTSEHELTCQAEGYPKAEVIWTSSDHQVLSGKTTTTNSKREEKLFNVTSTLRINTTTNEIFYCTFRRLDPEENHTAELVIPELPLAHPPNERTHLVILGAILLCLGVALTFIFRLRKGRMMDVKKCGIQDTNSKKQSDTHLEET

B1: FS22-172-003-AA/E12v2 (bispecific antibody, human IgG1, kappa, L234A L235A)
heavy: EVQLVQSGAEVKRPGASVKVSCKASGYPFTSYGISWVRQAPGQGLEWMGWISAYSGGTNYAQKLQGRVTMTTDTSTSTAYMELRSLRSDDTAVYYCARDLFPTIFGVSYYYYWGQGTLVTVSSASTKGPSVFPLAPSSKSTSGGTAALGCLVKDYFPEPVTVSWNSGALTSGVHTFPAVLQSSGLYSLSSVVTVPSSSLGTQTYICNVNHKPSNTKVDKKVEPKSCDKTHTCPPCPAPEAAGGPSVFLFPPKPKDTLMISRTPEVTCVVVDVSHEDPEVKFNWYVDGVEVHNAKTKPREEQYNSTYRVVSVLTVLHQDWLNGKEYKCKVSNKALPAPIEKTISKAKGQPREPQVYTLPPSRDELPYIIPPYNQVSLTCLVKGFYPSDIAVEWESNGQPENNYKTTPPVLDSDGSFFLYSKLTVGADRWLEGNVFSCSVMHEALHNHYTQKSLSLSPG
light: DIQMTQSPSTLSASVRDRVIITCRASQSIGNRLAWYQHKPGKAPKLLIYEASTSETGVPSRFSGSGSGTDFTLTISSLQPEDFATYYCQQSYSTPYTFGQGTKLEIKRTVAAPSVFIFPPSDEQLKSGTASVVCLLNNFYPREAKVQWKVDNALQSGNSQESVTEQDSKDSTYSLSSTLTLSKADYEKHKVYACEVTHQGLSSPVTKSFNRGEC
notes: PD-L1 site in the Fab, CD137 site in the CH3, LALA; also called anti-human CD137/PD-L1 mAb^2
With B1 the “EC50 (nM), IFN-γ release, human MLR” value [1] was 0.07 nM, the “EC50 (nM), IFN-γ release, CEFT antigen recall assay (CD4+ T cell activation)” value [2] was 0.08 nM and the “EC50 (nM), IFN-γ release, CEF antigen recall assay (CD8+ T cell activation)” value [3] was 0.03 nM. The “EC50 (nM), mouse IL-2 release, DO11.10 / LK35.2 PD-L1 blockade assay” value [4] was 1.27 nM, the EC50 [5] was 0.7 nM and the EC50 [6] was 6.2 nM. The Kd [7] was 1120 nM, the Kd [8] was 158 nM and the binding result (hPD-L1-His-Avi) was “binds”. It also gave an EC50 [9] of 0.8 nM.
